Laboratory results taken from US20230017777, “MONOCYTE AND MACROPHAGE BINDING APTAMERS AND THEIR APPLICATION” (University of Washington, published 2023).

T1: CD14 (UniProt P08571 P08571:20-345)
T1 sequence: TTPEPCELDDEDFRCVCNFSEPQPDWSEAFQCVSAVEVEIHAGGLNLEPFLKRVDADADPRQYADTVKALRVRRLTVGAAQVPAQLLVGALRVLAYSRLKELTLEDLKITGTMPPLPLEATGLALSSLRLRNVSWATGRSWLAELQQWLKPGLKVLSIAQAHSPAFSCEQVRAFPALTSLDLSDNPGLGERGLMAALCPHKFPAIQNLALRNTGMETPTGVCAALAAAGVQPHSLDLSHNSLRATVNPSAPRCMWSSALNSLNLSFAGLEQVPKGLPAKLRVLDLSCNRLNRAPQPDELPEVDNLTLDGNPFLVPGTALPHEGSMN

B1: A2 (ssDNA)
DNA: ATCCAGAGTGACGCAGCAGAAGAGTAGATGAAACGTTTTTTCGCCCGATAAAAGGGACGTGCGTCAGACATGGACACGGTGGCTTAGT
B2: SCRM (scrambled / nonspecific control aptamer) (ssDNA)
DNA: ATCCAGAGTGACGCAGCAATGATAGTGACGTACGGACTAGGGATCACCCATATCATGTAGAGGAAGTACGTGGACACGGTGGCTTAGT

Key:
CD14 [1] = biological target: T1, CD14; experiment: BLI; no significant binding over SCRM; figure legend calls it SPR, text says BLI (Octet Red96); settings: label: Cy5
CD14 [2] = biological target: T1, CD14; experiment: BLI; nonspecific aptamer control; settings: label: Cy5 (flow cytometry)

| Binder | binding result (CD14 [1]) | binding result (CD14 [2]) |
| --- | --- | --- |
| B1 | no binding |  |
| B2 |  | no binding |
